The term EC50 denotes the concentration that produces a half-maximal response. A word on the EC80: it is the point of the concentration-response curve where the effect stands at 80%. As a reminder, the EC90 is the concentration needed for an effect of 90%. Usually Kd stands for the free concentration of one partner at which half of the binding sites on the other are occupied at equilibrium, for simple one-to-one binding. One may read the IC50 as the concentration at which inhibition is half-maximal.

The source of these data is US20250109193A1 (FLAGSHIP PIONEERING INNOVATIONS VI, published 2025).

In test [1] the target is T1, human thymic stromal lymphopoietin (TSLP) (human, UniProt Q969D9 29-159).
T1 construct: also called hTSLP; human TSLP
Put plainly: indirect ELISA, coated human TSLP; 95% CI in brackets. (In an ELISA, binding on a coated surface is turned into a signal by an enzyme label.)
Protocol: (§1) The next day, the plates were washed three times with ELISA wash buffer and blocked with ELISA assay diluent B (BioLegend) for one hour at room temperature (RT). […] Antibody binding was assessed using an 8-point titration curve in triplicates (1:3 serial dilution starting at 10 μg/mL). The plate was washed three times with ELISA wash buffer, and HRP-conjugated anti-human IgG-HRP secondary antibody (Jackson ImmunoResearch Laboratories, Inc.) was added to wells at a 1:5000 dilution in 1×ELISA assay diluent. Secondary antibody was added to detect binding of the primary antibody to the antigen. The plate was incubated for 30 minutes at room temperature with the secondary detection antibody, then the plates were washed three times with ELISA wash buffer and developed with TMB substrate solution (Invitrogen, Waltham, MA). The HRP enzymatic reaction was stopped after about 1 minute with acidic stop solution (Invitrogen), and the absorbance at 450 nm on a Biotek plate reader.
(§2) The EC₅₀ values were calculated using Graphpad Prism 9.2.0 by fitting a four-parameter non-linear regression curve to the average absorbance values of three technical replicates per concentration with three independent experiments. […] N=4 independent experiments with 3 technical replicates. […] N=3 independent experiments with 3 technical replicates.

Test [2] concerns the target T2, cynomolgus monkey TSLP (cynomolgus monkey).
T2 construct: Recombinant, bought (ACROBiosystems); also called cynoTSLP; cyno TSLP
T2 chain: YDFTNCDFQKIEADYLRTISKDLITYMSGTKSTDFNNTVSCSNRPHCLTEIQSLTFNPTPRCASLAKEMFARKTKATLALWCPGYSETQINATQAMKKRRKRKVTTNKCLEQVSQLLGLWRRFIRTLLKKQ
The experiment in a line: indirect ELISA, coated cyno TSLP; 95% CI in brackets.
Protocol: as §1, §2

Test [3] deals with T1, human thymic stromal lymphopoietin …. The experiment in a line: cell-based or functional assay.
Test [4] deals with T2, cynomolgus monkey TSLP. Put plainly: cell-based or functional assay.
Another test addresses T3, mouse TSLP (mouse, UniProt Q9JIE6 20-140).
T3 construct: also called mouse TSLP cytokine
T3 sequence (looked up): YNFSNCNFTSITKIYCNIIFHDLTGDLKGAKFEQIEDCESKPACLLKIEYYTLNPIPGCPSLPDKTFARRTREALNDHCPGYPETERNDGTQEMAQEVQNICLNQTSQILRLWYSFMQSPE
The experiment in a line: direct ELISA: plate coated with 2 µg/mL mouse TSLP, anti-human IgG-HRP, absorbance at 450 nm.

Test [5] addresses T1, human thymic stromal lymphopoietin …. The experiment in a line: KinExA, solution equilibrium, 25 C.
Protocol: The solution equilibrium binding experiments were performed using KinExA 3200 instrument equipped with an autosampler (Sapidyne Instruments, Boise, ID, USA). All analyses were performed at 25° C., and all samples were prepared in 1× phosphate-buffered saline (PBS) filtered buffer supplemented with 1 mg/mL bovine serum albumin (BSA) and 0.02% sodium azide. […] The beads were washed with blocking buffer (1 M Tris supplemented with 10 mg/mL BSA, pH 8.0) and rocked for 1 hour.
The sample injection volumes and flow rates were varied depending upon the antibody tested. […] The concentration, volume and flow rate of the secondary antibody were varied to achieve a signal at less than 1.0 V.
A 1:1 binding equilibrium model was used with the titrant selected as the reference concentration. The drift correction option was used where appropriate.
The target is the same in test [6]. Put plainly: indirect ELISA, coated recombinant hTSLP.
Protocol: The next day, the plate was washed three times with ELISA Wash Buffer (PBS-Tween 0.5%), blocked with 1×ELISA assay diluent (BioLegend) for one hour. […] The plate was washed three times with ELISA Wash Buffer, and horseradish peroxidase (HRP)-conjugated anti-human IgG Fc secondary antibody (Promega, Madison, WI) at 1:2000 dilution in 1×ELISA assay diluent was added to detect binding of the primary antibody to the antigen. The plate was incubated for 30 minutes at 37° C. with the secondary detection antibody, then the plate was washed and developed with tetramethyl benzidine (TMB) substrate solution (Thermo Fisher Scientific, Waltham, MA). The HRP enzymatic reaction was stopped after about 1 minute with acidic stop solution (Thermo Fisher Scientific), and the absorbance at 450 nm was determined using a standard plate reader. The EC₅₀ values were calculated by fitting a four-parameter non-linear regression line to the average of two technical replicates per concentration.
The target is the same in test [7]. The experiment in a line: blocking ELISA: antibody titrated against hTSLP-biotin, coated hTSLPR/hIL-7Rα-Fc.
Protocol: A 96 well half area flat bottom plate was coated with 50 μL of recombinant heterodimeric human TSLPR and human IL-7Rα Fe tagged fusion protein (2 μg/mL) in ELISA coating buffer. The plate was incubated overnight at 4° C. and was washed thrice with 150 μL ELISA Wash Buffer (1×PBS-Tween 0.5%) the next day. The plate was blocked with 50 μL of ELISA assay diluent for one hour at 37° C. and was washed three times with 150 μL of ELISA wash buffer. […] The ELISA plate was incubated for 1 hour at 37° C. followed by washing three times with ELISA wash buffer. HRP-Streptavidin (Thermo Fisher Scientific) was diluted 1:2000 in ELISA assay diluent 50 μl was added to each well and incubated for 30 minutes at 37° C. followed by washing three times with ELISA wash buffer. The ELISA was developed by addition of 50 μL of TMB substrate (Thermo Fisher Scientific) and incubation for 2-3 minutes at room temperature (protected from light). The reaction was stopped with acidic stop solution (Thermo Fisher Scientific), and the absorbance was read at 450 nm wavelength using a standard plate reader. Percent inhibition of signal and IC₅₀ values were determined.
A blocking ELISA was performed by coating an ELISA plate with hTSLPR overnight. […] The ELISA plate was incubated for 1 hour at 37° C., followed by washing of the plate. […] The ELISA was developed with TMB substrate, and the HRP enzymatic reaction was stopped with sulfuric acid solution.

Protocol for mouse TSLP: as §1, §2

B1: AB-2a (antibody, human IgG1, lambda)
heavy: not shown
light: SYVLTQPPSVSVAPGQTARITCGGNNIGSKSVHWYQQKPGQAPVLVVYDDSDRPSWIPERFSGSNSGNTATLTISRGEAGDEADYYCQIWDSSSSLVVFGGGTKLTVLGQPKAAPSVTLFPPSSEELQANKATLVCLISDFYPGAVTVAWKADSSPVKAGVETTTPSKQSNNKYAASSYLSLTPEQWKSHRSYSCQVTHEGSTVEKTVAPTECS
In test [1], B1 had an EC50 of 0.03 µg/mL, an EC80 of 0.09 µg/mL and an EC90 of 0.15 µg/mL. Also, in the test with cynomolgus monkey TSLP [2], it took 0.1 µg/mL to reach the 80% level (EC80). The “IC50, human TSLPR/IL-7Rα Ba/F3 STAT5-luciferase assay” value in test [3] was found to be 0.02 µg/mL. For the same molecule, the “IC50, cyno TSLPR/IL-7Rα Ba/F3 STAT5-luciferase assay” value in the test with cynomolgus monkey TSLP [4] amounted to 0.03 µg/mL. Further, the binding result with mouse TSLP is “no binding (tested: about 5 µg/ml)”.

B2: AB-8 (antibody, V domains shown)
VH: QMQLVESGGGVVQPGRSLRLSCAASGFTFRTYGMHWVRQAPGKGLEWVAVIWYDGSYTHYADSVKGRFTITRDNSKNTLNLQMNSLRAEDTAVYYCARSPQWEDIFEAFDIWGQGTMVTVSS
VL: SYVLTQPPSVSVAPGQTARITCGGNNIGSKSVHWYQQKPGQAPVLVVYDDSDRPSWIPERFSGSNSGNTATLTISRGEAGDEADYYCQVWDSSSSLVVFGGGTKLTVL
Regarding B2, the affinity in test [5], expressed as Kd, was 0.000335 nM.

B3: AB-11 (antibody, V domains shown)
VH: QMQLVESGGGVVQPGRSLRLSCAASGFTFRTYGMHWVRQAPGKGLEWVAVISYSGSYIHYADSVKGRFTITRDNSKNTLNLQMNSLRAEDTAVYYCTRSPQWEEVYEALDIWGQGTMVTVSS
VL: SYVLTQPPSVSVAPGQTARITCGGNNIGSFSVHWYQQKPGQAPVLVVYDDSDRPSWIPERFSGSNSGNTATLTISRGEAGDEADYYCQVWSSTSRHVVFGGGTKLTVL
For B3, the EC50 in test [6] was 0.173 nM. For the same molecule, the Kd in test [5] was found to be 0.000754 nM. In addition, the IC50 in test [7] is 0.243 nM.

B4: AB-12 (antibody, V domains shown)
VH: QMQLVESGGGVVQPGRSLRLSCAASGFTFRTYGMHWVRQAPGKGLEWVAVVWYDGSNTHYADSVKGRFTITRDNSKNTLNLQMNSLRAEDTAVYYCARAPQWESVHEAFDIWGQGTMVTVSS
VL: SYVLTQPPSVSVAPGQTARITCGGNNIGRFSVHWYQQKPGQAPVLVVYDDSDRPSWIPERFSGSNSGNTATLTISRGEAGDEADYYCQVWVSTSDKVVFGGGTKLTVL
Regarding B4, the EC50 in test [6] was 0.291 nM. In test [5], the Kd was 0.00102 nM. Further, the IC50 in test [7] turned out to be 0.29 nM.

B5: AB-10 (antibody, V domains shown)
VH: QMQLVESGGGVVQPGRSLRLSCAASGFTFRTYGMHWVRQAPGKGLEWVAVIWYSGTTTHYADSVKGRFTITRDNSKNTLNLQMNSLRAEDTAVYYCSRSPQWEDIFESMDIWGQGTMVTVSS
VL: SYVLTQPPSVSVAPGQTARITCGGNNIGSKNVHWYQQKPGQAPVLVVYDDSDRPSWIPERFSGSNSGNTATLTISRGEAGDEADYYCQVWDSSDFLVVFGGGTKLTVL
For the molecule B5, the EC50 in test [6] came to 0.286 nM. For the same molecule, the Kd in test [5] was determined as 0.000395 nM. The IC50 in test [7] worked out at 0.251 nM.

B6: AB-5 (antibody, V domains shown)
VH: QMQLVESGGGVVQPGRSLRLSCAASGFTFRTYGMHWVRQAPGKGLEWVAVVWYDGYDTHYADSVKGRFTITRDNSKNTLNLQMNSLRAEDTAVYYCSRSPQWEDIFESMDIWGQGTMVTVSS
VL: SYVLTQPPSVSVAPGQTARITCGGNNLGSKSVHWYQQKPGQAPVLVVYDDSDRPSWIPERFSGSNSGNTATLTISRGEAGDEADYYCQVWDMSSDLVVFGGGTKLTVL
Turning to B6, the EC50 in test [6] stood at 0.264 nM. In test [5], this molecule displayed a Kd of 0.00014 nM. This molecule registered an IC50 in test [7] of 0.246 nM.

B7: AB-14 (antibody, V domains shown)
VH: QMQLVESGGGVVQPGRSLRLSCAASGFTFRTYGMHWVRQAPGKGLEWVAVIWYDGSTKHYADSVKGRFTITRDNSKNTLNLQMNSLRAEDTAVYYCARAPQWELVHEAFDIWGQGTMVTVSS
VL: SYVLTQPPSVSVAPGQTARITCGGNNIGSKNVHWYQQKPGQAPVLVVYDDSDRPSWIPERFSGSNSGNTATLTISRGEAGDEADYYCQVWDESSDEVVFGGGTKLTVL
Turning to B7, the EC50 in test [6] was 0.264 nM. The molecule further registered a Kd in test [5] of 0.000877 nM. Besides, in test [7], the IC50 came to 0.186 nM.

B8: AB-4 (antibody, V domains shown)
VH: QMQLVESGGGVVQPGRSLRLSCAASGFTFRTYGMHWVRQAPGKGLEWVAVIWYSGSDTHYADSVKGRFTITRDNSKNTLNLQMNSLRAEDTAVYYCARSPQWEDIFESMDVWGQGTMVTVSS
VL: SYVLTQPPSVSVAPGQTARITCGGNYIGSFSVHWYQQKPGQAPVLVVYDDSDRPSWIPERFSGSNSGNTATLTISRGEAGDEADYYCQIYVSASRLVVFGGGTKLTVL
As to B8, the EC50 in test [6] is 0.26 nM. Further, in test [5], the Kd was 0.000208 nM.

B9: AB-3 (antibody, V domains shown)
VH: QMQLVESGGGVVQPGRSLRLSCAASGFTFRTYGMHWVRQAPGKGLEWVAVIWYDGTYTHYADSVKGRFTITRDNSKNTLNLQMNSLRAEDTAVYYCARSPQWESIFEAFDIWGQGTMVTVSS
VL: SYVLTQPPSVSVAPGQTARITCGGNNIGSKSVHWYQQKPGQAPVLVVYDDSDRPSWIPERFSGSNSGNTATLTISRGEAGDEADYYCQVWDSSSSLVVFGGGTKLTVL
Turning to B9, in test [6], the EC50 was 0.237 nM. The same molecule yielded a Kd in test [5] of 0.000302 nM. In addition, the IC50 in test [7] was found to be 0.232 nM.

B10: AB-2 (antibody, human IgG1, V domains shown)
VH: QMQLVESGGGVVQPGRSLRLSCAASGFTFRTYGMHWVRQAPGKGLEWVAVVWYDGSYTHYADSVKGRFTITRDNSKNTLNLQMNSLRAEDTAVYYCARSPQWEEIFEAMDIWGQGTMVTVSS
VL: SYVLTQPPSVSVAPGQTARITCGGNNIGSKSVHWYQQKPGQAPVLVVYDDSDRPSWIPERFSGSNSGNTATLTISRGEAGDEADYYCQIWDSSSSLVVFGGGTKLTVL
In the case of B10, the EC50 in test [6] amounted to 0.204 nM. Besides, binding in test [5] was characterised by a dissociation constant (Kd) of 0.000123 nM. Further, it took 0.29 nM to reach half-maximal inhibition in test [7] (IC50).

B11: AB-9 (antibody, V domains shown)
VH: QMQLVESGGGVVQPGRSLRLSCAASGFTFRTYGMHWVRQAPGKGLEWVAVIWYDGSYTHYADSVKGRFTITRDNSKNTLNLQMNSLRAEDTAVYYCARSPQWESIFEAFDIWGQGTMVTVSS
VL: SYVLTQPPSVSVAPGQTARITCGGNNIGSKSVHWYQQKPGQAPVLVVYDDSDRPSWIPERFSGSNSGNTATLTISRGEAGDEADYYCQVWDSSSSLVVFGGGTKLTVL
In test [5], B11 came in with a Kd of 0.000496 nM. Besides, in test [7], inhibition was half-maximal at 0.227 nM (IC50).

B12: AB-1 (antibody, V domains shown)
VH: QMQLVESGGGVVQPGRSLRLSCAASGFTFRTYGMHWVRQAPGKGLEWVAVVWYSGSYTHYADSVKGRFTITRDNSKNTLNLQMNSLRAEDTAVYYCSRSPQWEDIFEAMDIWGQGTMVTVSS
VL: SYVLTQPPSVSVAPGQTARITCGGNNIGSKSVHWYQQKPGQAPVLVVYDDSDRPSWIPERFSGSNSGNTATLTISRGEAGDEADYYCQVWDSSSSLVVFGGGTKLTVL
On to B12, for which, in test [6], the half-maximal effective concentration (EC50) amounted to 0.265 nM. The molecule further had a dissociation constant Kd in test [5] of 0.000208 nM.

B13: AB-6 (antibody, V domains shown)
VH: QMQLVESGGGVVQPGRSLRLSCAASGFTFRTYGMHWVRQAPGKGLEWVAVVWYDGSDIHYADSVKGRFTITRDNSKNTLNLQMNSLRAEDTAVYYCSRSPQWEDIFESMDIWGQGTMVTVSS
VL: SYVLTQPPSVSVAPGQTARITCGGNNIGSKSVHWYQQKPGQAPVLVVYDDSDRPSWIPERFSGSNSGNTATLTISRGEAGDEADYYCQIWDSSSDHVVFGGGTKLTVL
B13: in test [6], the EC50 was 0.397 nM. In test [5], this molecule yielded a dissociation constant (Kd) of 0.000133 nM.

B14: AB-13 (antibody, V domains shown)
VH: QMQLVESGGGVVQPGRSLRLSCAASGFTFRTYGMHWVRQAPGKGLEWVAVISYDGSTKHYADSVKGRFTITRDNSKNTLNLQMNSLRAEDTAVYYCARAPQWESVYEAFDIWGQGTMVTVSS
VL: SYVLTQPPSVSVAPGQTARITCGGNNLGSFSVHWYQQKPGQAPVLVVYDDSDRPSWIPERFSGSNSGNTATLTISRGEAGDEADYYCQVWDSSEDLVVFGGGTKLTVL
For B14, the EC50 in test [6] is 0.23 nM. For the same molecule, the IC50 in test [7] turned out to be 0.223 nM.

B15: AB-7 (antibody, V domains shown)
VH: QMQLVESGGGVVQPGRSLRLSCAASGFTFRTYGMHWVRQAPGKGLEWVAVIWYSGAYIHYADSVKGRFTITRDNSKNTLNLQMNSLRAEDTAVYYCSRSPQWEDIFEAMDIWGQGTMVTVSS
VL: SYVLTQPPSVSVAPGQTARITCGGNNLGSYSVHWYQQKPGQAPVLVVYDDSDRPSWIPERFSGSNSGNTATLTISRGEAGDEADYYCQVWDMSSSLVVFGGGTKLTVL
Consider B15, for which the EC50 in test [6] came out at 0.29 nM. Besides, the Kd in test [5] worked out at 0.000184 nM. Besides, the IC50 in test [7] came to 0.162 nM.
